Measurements taken from article PMC8326427.

Target: T1, rDHX36 (G4R1/RHAU) (UniProt Q9H2U1 1-1008)
T1 sequence: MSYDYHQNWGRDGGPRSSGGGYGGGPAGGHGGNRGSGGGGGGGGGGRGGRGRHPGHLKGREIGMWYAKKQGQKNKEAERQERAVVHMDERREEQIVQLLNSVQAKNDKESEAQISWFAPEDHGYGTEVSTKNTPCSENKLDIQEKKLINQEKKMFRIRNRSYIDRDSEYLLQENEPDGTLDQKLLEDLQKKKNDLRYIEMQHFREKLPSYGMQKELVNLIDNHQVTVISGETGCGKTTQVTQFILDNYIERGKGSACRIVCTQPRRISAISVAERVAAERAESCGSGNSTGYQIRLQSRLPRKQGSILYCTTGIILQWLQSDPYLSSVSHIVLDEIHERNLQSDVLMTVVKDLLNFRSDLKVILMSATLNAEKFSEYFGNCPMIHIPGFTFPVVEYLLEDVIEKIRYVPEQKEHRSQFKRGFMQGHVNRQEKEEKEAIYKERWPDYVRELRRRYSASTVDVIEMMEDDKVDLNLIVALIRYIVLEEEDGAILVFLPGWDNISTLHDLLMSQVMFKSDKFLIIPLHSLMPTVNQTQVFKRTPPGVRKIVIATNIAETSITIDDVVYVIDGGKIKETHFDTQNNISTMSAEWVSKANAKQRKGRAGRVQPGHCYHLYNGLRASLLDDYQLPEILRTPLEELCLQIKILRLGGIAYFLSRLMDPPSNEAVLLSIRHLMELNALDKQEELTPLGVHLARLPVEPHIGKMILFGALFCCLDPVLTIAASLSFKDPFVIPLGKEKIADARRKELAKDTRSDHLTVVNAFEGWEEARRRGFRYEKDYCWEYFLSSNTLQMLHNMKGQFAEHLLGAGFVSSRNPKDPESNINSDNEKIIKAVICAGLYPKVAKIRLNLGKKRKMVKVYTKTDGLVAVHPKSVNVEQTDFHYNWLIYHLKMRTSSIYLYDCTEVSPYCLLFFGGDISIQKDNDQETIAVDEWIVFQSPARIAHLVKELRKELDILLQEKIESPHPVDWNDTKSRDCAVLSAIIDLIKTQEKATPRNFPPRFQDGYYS
Assay: EMSA

Binder: GGGGCCGGGGCCGGGGCCGGGGCCGGGGCCGTTAGAATTTTT (structured_DNA) [(G4C2)5-DNA, annealed with KCl (G4)]
- binding result: binds
